Assay results reported in PMC3841061.

Target: P2Y1R-i3-YFP-long2/tail-HT (human) (UniProt P47900)
Test: FRET or BRET

Sequence of UniProt P47900 (P47900 whole entry): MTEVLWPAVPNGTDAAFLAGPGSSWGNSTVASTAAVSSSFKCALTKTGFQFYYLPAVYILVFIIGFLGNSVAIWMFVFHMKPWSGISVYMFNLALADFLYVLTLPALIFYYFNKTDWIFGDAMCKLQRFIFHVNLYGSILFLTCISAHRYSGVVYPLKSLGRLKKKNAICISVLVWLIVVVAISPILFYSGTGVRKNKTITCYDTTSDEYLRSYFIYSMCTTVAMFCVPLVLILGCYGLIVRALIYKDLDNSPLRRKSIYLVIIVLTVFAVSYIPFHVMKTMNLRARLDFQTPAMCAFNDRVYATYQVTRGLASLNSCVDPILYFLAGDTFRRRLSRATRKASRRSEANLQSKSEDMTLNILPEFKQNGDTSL

“Gαq-CFP (from UniProt P21279 1-359) (natural protein)” showed a ΔnF/ICFP by ADPβS 10 μmol/L (agonist-induced increase in FRET) of 0.014.
